The target in test [1] is T1, C1s-cleaved glycosylated recombinant human C2 (human, UniProt P06681 21-243; P06681 244-752, N-linked glycans).
T1 construct: Cleavage at the Arg243-|-Lys244 bond as printed; also called C1s-cleaved recombinant human C2; C1s-cleaved C2; not shown: N-terminal his-tag
T1 sequence 1: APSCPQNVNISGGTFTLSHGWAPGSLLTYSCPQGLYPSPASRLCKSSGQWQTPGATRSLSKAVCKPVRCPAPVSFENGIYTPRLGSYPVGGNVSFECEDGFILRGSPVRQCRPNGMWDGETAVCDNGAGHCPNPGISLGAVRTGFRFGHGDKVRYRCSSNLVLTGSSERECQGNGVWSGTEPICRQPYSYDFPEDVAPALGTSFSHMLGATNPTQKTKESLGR
T1 sequence 2: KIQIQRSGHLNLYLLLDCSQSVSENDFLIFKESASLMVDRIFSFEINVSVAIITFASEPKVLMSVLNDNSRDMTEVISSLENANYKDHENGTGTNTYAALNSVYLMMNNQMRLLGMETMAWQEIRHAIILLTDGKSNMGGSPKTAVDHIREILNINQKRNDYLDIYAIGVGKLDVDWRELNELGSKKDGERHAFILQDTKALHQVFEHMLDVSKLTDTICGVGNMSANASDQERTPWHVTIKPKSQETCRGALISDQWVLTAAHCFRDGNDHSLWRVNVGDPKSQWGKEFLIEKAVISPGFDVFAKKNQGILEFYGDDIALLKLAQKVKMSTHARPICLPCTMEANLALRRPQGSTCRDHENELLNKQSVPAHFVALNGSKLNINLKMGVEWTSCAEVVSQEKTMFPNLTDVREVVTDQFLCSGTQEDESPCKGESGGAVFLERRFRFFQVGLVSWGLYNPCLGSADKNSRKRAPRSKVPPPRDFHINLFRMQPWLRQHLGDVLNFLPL
Briefly: ELISA, C1s-cleaved C2 coated at 200 ng per well. (ELISA stands for enzyme-linked immunosorbent assay.)

Test [2] addresses T2, glycosylated recombinant human complement C2 with a N-terminal his-tag (human, UniProt P06681 21-752, N-linked glycans).
T2 construct: also called recombinant human C2; wild-type recombinant C2; not shown: N-terminal his-tag
T2 sequence: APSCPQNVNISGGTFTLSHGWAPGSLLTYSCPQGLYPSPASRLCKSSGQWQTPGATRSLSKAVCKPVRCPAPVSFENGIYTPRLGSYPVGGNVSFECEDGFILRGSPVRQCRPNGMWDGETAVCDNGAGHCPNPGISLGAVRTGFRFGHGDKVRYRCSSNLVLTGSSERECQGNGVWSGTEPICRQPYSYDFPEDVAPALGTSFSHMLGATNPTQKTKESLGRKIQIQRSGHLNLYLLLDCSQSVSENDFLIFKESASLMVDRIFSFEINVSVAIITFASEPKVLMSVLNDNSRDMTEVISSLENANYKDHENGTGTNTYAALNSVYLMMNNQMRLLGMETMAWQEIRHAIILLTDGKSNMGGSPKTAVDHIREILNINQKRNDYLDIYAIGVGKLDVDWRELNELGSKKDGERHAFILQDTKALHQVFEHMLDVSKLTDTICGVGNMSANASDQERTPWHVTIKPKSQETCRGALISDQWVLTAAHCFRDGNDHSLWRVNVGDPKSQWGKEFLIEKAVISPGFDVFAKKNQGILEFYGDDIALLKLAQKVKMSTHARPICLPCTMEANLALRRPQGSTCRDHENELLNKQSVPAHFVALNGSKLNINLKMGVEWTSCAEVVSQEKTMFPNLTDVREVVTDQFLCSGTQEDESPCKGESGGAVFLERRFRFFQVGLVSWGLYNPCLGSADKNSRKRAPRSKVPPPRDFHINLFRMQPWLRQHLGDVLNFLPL
As to the kind of experiment: ELISA, C2 coated at 25 or 200 ng per well. As to the method: Chimeric mouse-human antibodies (human IgG1κ version for anti-C2-32, and human IgG4κ version for anti-C2-5F2.4, -13, -32, -35 and -60) were expressed using FreeStyle™ MAX CHO (CHO-S cells) Expression System (Invitrogen). Expressed chimeric mouse-human anti-human complement C2 antibodies were purified using affinity chromatography protein A columns (GE Healthcare). Using the same ELISA procedure as described in Example 3, all anti-C2 chimeric mAbs were tested for binding to high (200 ng per well) and low (25 ng per well) recombinant C2. Briefly, ELISA plates (Corning) were coated with the indicated amount of C2 in PBS overnight at 4° C. After extensive washing in PBS/0.05% Tween 20, plates were blocked with PBS/0.05% Tween 20/1% BSA fraction V (Roche) for 1 hour at RT. […] After extensive washing in PBS/0.05% Tween 20, binding of antibodies was determined with 1:5000 diluted horseradish peroxidase-conjugated goat anti-human IgG-specific (heavy and light chains) antibodies (Jackson ImmunoResearch) for 1 hour at RT, followed by a ready-to-use solution of TMB substrate (Invitrogen) for colorimetric detection. After adding 1 M H_2SO_4, optical densities were measured at a wavelength of 450 nm (reference wavelength of 655 nm) using a microplate reader (BioRad).

In test [3] the target is T2, glycosylated recombinant human …. As to the kind of experiment: ELISA, recombinant human C2 immobilized at 2 µg/ml. The procedure: Chimeric mouse-human antibodies (human IgG1κ version for anti-C2-32, and human IgG4κ version for anti-C2-5F2.4, -13, -32, -35 and -60) were expressed using FreeStyle™ MAX CHO (CHO-S cells) Expression System (Invitrogen). Expressed chimeric mouse-human anti-human complement C2 antibodies were purified using affinity chromatography protein A columns (GE Healthcare). Using the same ELISA procedure as described in Example 3, all anti-C2 chimeric mAbs were tested for binding to high (200 ng per well) and low (25 ng per well) recombinant C2. Briefly, ELISA plates (Corning) were coated with the indicated amount of C2 in PBS overnight at 4° C. After extensive washing in PBS/0.05% Tween 20, plates were blocked with PBS/0.05% Tween 20/1% BSA fraction V (Roche) for 1 hour at RT. Subsequently, plates were incubated with 0, 0.00002-20.0 (10-fold dilution steps in block buffer) μg/mL protein A-purified chimeric mouse-human IgG1κ and/or IgG4κ anti-C2-5F2.4, -13, -32, -35 and -60 for 1 hour at RT. After extensive washing in PBS/0.05% Tween 20, binding of antibodies was determined with 1:5000 diluted horseradish peroxidase-conjugated goat anti-human IgG-specific (heavy and light chains) antibodies (Jackson ImmunoResearch) for 1 hour at RT, followed by a ready-to-use solution of TMB substrate (Invitrogen) for colorimetric detection. After adding 1 M H_2SO_4, optical densities were measured at a wavelength of 450 nm (reference wavelength of 655 nm) using a microplate reader (BioRad).
Binding of humanized anti-C2-5F2.4 mAbs versions VL3VH3, VL4VH3, VL3VH4, and VL4VH4 to C2 was assessed by ELISA like described above in Example 12 (recombinant human C2 was immobilized to plates at 2 µg/ml).

Test [4] shares this target. As to the kind of experiment: ELISA, C2 coated at 200 ng per well.
Test [5] concerns the target T3, glycosylated recombinant human subcomponent C2a (≈70 kDa) (human, UniProt P06681 244-752, N-linked glycans).
T3 construct: Larger fragment of C1s-cleaved recombinant C2; Start 244 follows from the printed cleavage site; also called purified C2a; recombinant human C2a
T3 sequence: T1 sequence 2
Briefly: Western blot of C1s-cleaved C2, non-reducing, mAb at 200 ng/mL. As to the method: (a). Mapping of Epitopes for mAbs Anti-C2-13, -32, -35, -60 and -5F2.4 on Glycosylated Recombinant Human Subcomponents C2a and C2b with Western Blotting Glycosylated recombinant human C2 (range 125-500 ng/lane, see FIG. 9; U-protein Express) or C1s-cleaved glycosylated recombinant human C2 (range 62.5-1000 ng/lane, see FIG. 9; for C2 cleavage procedure, see Example 1(b)) were electrophorized using 4-12% Tris-Bis gels and MOPS running buffer (Invitrogen) under non-reducing conditions in pre-cast SDS-PAGE (NuPage® Novex® system). Then, the C2 proteins were electro-blotted onto a polyvinylidene fluoride (PDVF) transfer membrane (Millipore). After blocking with PBS/0.05% Tween 20/1% BSA fraction V (Roche) for 20 min at RT, PDVF membranes were incubated with anti-C2 mAbs anti-C2-C2-5F2.4 (100 ng/mL), anti-C2-13 (200 ng/mL), anti-C2-32 (200 ng/mL), anti-C2-35 (100 ng/mL) and anti-C2-60 (200 ng/mL) for 1 hour at RT. After extensive washing in PBS/0.05% Tween 20, binding of anti-C2 mAbs was determined with 1:10,000 diluted horseradish peroxidase-conjugated goat anti-mouse Fcγ-specific antibodies (Jackson ImmunoResearch) for 1 hour at RT, followed by a ready-to-use solution of TMB substrate (Sigma) for colorimetric detection.

Substitutions are numbered along the chain they refer to.

B1: mouse anti-human complement C2 antibody anti-C2-5F2.4 (mIgG2aκ) (antibody, V domains shown)
VH: EVQLQQSGAELVKPGASVKISCKASGYTFTDYNMDWVKQSHGKSLEWIGDINPNYESTGYNQKFKGKATLTVDKSSSTAYMELRSLTSEDTAVYYCAREDDHDAFAYWGQGTLVTVSA
VL: DNVLTQSPASVVVSLGQRATISCRASKSVRTSGYNYMHWYQQKPGQPPKLLIYLASNLKSGVPARFSGSGSGTDFTLNIHPVEEADAATYYCQHSRELPYTFGGGTKLEIKR
notes: also called mAb 5F2.4
In the case of B1, in test [1], the binding result is “binds”.

B2: chimeric mouse-human IgG4κ anti-human complement C2-5F2.4 (antibody, V domains shown)
VH: B1 VH
VL: B1 VL with N2I
notes: Stabilized human IgG4 / human κ, expressed in CHO-S cells; also called chimeric anti-C2-5F2.4; chuIgG4κ anti-C2-5F2.4
With B2, in test [2], the binding result is given as “binds”.

B3: humanized IgG4/kappa anti-human complement C2-5F2.4 version VL3VH3 (antibody)
heavy: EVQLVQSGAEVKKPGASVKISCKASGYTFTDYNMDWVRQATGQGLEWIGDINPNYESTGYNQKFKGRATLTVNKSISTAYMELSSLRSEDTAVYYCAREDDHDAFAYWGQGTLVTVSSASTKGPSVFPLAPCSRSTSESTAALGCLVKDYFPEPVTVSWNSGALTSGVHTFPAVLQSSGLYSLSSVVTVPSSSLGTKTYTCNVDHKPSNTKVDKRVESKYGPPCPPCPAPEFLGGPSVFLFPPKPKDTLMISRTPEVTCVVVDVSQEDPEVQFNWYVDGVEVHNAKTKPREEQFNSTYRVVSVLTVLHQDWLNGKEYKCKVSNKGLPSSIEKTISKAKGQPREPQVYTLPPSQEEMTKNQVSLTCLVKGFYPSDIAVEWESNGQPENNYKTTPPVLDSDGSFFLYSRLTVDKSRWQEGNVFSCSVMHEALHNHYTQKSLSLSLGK
light: DNVLTQSPDSLAVSLGERATISCRASKSVRTSGYNYMHWYQQKPGQPPKLLIYLASNLKSGVPDRFSGSGSGTDFTLTISSLQAEDAATYYCQHSRELPYTFGQGTKLEIKRTVAAPSVFIFPPSDEQLKSGTASVVCLLNNFYPREAKVQWKVDNALQSGNSQESVTEQDSKDSTYSLSSTLTLSKADYEKHKVYACEVTHQGLSSPVTKSFNRGEC
notes: Stabilized human IgG4, κ; expressed with the FreeStyle 293 system
As for B3, the binding result in test [3] was “binds”.

B4: humanized IgG4/kappa anti-human complement C2-5F2.4 version VL4VH3 (antibody)
heavy: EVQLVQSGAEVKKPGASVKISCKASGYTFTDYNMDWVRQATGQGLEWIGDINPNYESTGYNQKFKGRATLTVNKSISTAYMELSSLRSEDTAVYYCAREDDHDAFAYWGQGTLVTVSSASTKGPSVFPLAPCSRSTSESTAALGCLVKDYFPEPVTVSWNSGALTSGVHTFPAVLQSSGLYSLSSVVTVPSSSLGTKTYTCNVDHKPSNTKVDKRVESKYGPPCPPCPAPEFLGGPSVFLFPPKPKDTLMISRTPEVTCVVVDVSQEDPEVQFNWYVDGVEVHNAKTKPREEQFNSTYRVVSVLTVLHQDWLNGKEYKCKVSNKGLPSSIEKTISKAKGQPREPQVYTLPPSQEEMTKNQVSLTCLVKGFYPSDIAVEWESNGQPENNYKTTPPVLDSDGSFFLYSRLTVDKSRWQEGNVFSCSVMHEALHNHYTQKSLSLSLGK
light: B3 light with S22N
notes: as for B3
In the case of B4, the binding result in test [3] is reported as “binds”.

B5: humanized IgG4/kappa anti-human complement C2-5F2.4 version VL3VH4 (antibody)
heavy: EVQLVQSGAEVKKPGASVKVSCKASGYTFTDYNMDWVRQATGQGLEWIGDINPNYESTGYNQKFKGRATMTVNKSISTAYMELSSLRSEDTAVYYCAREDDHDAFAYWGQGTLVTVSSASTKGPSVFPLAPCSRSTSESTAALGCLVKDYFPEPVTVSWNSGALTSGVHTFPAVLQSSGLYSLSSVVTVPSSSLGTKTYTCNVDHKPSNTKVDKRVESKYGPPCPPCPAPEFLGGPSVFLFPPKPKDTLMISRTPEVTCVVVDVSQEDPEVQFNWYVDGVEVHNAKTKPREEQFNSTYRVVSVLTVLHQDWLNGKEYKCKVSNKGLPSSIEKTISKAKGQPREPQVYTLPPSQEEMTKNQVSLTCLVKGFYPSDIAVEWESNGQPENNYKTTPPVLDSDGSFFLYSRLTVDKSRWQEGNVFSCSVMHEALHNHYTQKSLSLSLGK
light: B3 light
notes: as for B3
On to B5, for which the binding result in test [3] is “binds”.

B6: humanized IgG4/kappa anti-human complement C2-5F2.4 version VL4VH4 (antibody)
heavy: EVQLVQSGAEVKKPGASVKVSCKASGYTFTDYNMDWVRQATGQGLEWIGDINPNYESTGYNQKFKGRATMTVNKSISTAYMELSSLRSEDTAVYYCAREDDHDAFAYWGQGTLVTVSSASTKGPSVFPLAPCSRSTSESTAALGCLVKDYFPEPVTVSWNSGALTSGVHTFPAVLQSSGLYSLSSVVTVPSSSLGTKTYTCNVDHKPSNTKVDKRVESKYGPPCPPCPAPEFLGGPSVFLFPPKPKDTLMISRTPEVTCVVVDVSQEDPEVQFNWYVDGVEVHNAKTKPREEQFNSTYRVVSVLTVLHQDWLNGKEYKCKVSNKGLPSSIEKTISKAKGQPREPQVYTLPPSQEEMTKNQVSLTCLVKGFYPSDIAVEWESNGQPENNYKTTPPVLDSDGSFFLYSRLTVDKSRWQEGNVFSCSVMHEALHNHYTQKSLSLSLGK
light: B3 light with S22N
notes: as for B3
For the molecule B6, in test [3], the binding result was “binds”.

B7: mouse anti-human complement C2 antibody anti-C2-60 (mIgG1κ) (antibody, V domains shown)
VH: QVALKESGPGILQPSQTLSLTCSFSGFSLSTSNMGVGWIRQPSGKGLEWLAHIWWDDDKRYNPALKSRLTISKDTSSNQVFLKIASVDTADTATYFCARIGRPTMITTWYLDVWGAGTTVTVSS
VL: DIQMTQSPASLSVSVGETVTITCRASENIYSNLAWYQQKQGKSPQLLVYAATKLADGVPSRFSGSGSGTQYSLKINSLQSEDFGNYYCQHFWNTPYTFGGGTKLEIKR
notes: Hybridoma antibody, murine IgG1κ; also called antibody 60; hybridoma 60
On to B7, for which the binding result in test [4], in test [1] and in test [5] was “binds” each time.

B8: chimeric mouse-human IgG4κ anti-human complement C2-60 (antibody, V domains shown)
VH: B7 VH with A3Q, K5Q, E6Q
VL: B7 VL
notes: Stabilized human IgG4 / human κ, expressed in CHO-S cells; also called chimeric anti-C2-60; chuIgG4κ anti-C2-60
As for B8, the binding result in test [2] is reported as “binds”.

These data come from patent US9944717 (BROTEIO PHARMA B V, dated 2018).
